Patent US20180066318A1 (INSTITUT PASTEUR, published 2018)

Biological target: T1, in vitro translated HA-tagged NEMO (UniProt Q9Y6K9 1-419)
T1 construct: Negative control in the pull-down; made in TNT reticulocyte lysate; also called HA-NEMO; not shown: HA tag
Experiment: GST pull-down of in vitro translated protein, anti-HA blot
From the text: FIGS. 1a-1d: binding of CARMA1 SH3 domain to E-Syt2. GST pull-down assays show direct interaction between E-Syt2 and SH3 domains. Schematic representation of CARMA1 (a) and E-Syt2 (b) mutant constructs. (c) upper panel: pull-down assays of the interactions between CARMA1 SH3 domain (GST-SH3c), Vav SH3 domain (GST-SH3v) or GST and in vitro translated HA-tagged E-Syt2, or NEMO in TNT® reticulocytes lysate systems. Ten percent of the input TNT lysates was also run on the PAGE and immunoblot with anti-HA to determine the relative binding capacity. […] Jurkat T cells were incubated with Raji B cells and coated with medium alone or with SEE. At 10 minutes, cells were fixed and E-SYT2 localized by immunofluorescence and confocal microscopy, using anti-A-SYT2 antibody, as described in the experimental procedure. The corresponding Nomarski images are shown on the bottom panels. Scale Bars represent 1 μm. (d) ESYT2 localized in microclusters Jurkat cells were settle onto glass coverslips coated either with anti-CD3, anti-CD28 or both and fixed 5 min of stimulation. The images of E-Syt2, PKCθ and TCT staining were taken by confocal microscopy.

T1 sequence (Q9Y6K9 whole entry): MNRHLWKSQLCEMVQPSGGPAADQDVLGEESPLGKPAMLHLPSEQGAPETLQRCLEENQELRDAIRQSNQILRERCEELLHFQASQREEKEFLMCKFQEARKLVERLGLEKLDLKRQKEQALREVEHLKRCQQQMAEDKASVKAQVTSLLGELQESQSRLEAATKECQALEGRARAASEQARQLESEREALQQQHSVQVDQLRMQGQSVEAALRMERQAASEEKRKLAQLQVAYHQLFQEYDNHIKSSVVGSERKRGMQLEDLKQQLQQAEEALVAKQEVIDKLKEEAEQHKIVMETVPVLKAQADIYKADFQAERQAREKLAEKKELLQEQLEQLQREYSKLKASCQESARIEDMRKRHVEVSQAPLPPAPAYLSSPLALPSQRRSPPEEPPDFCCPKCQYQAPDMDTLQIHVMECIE

B1: GST fused to the Vav SH3 domain (GST-SH3v) (other, UniProt P15498 782-845, looked up)
chain: KYFGTAKARYDFCARDRSELSLKEGDIIKILNKKGQQGWWRGEIYGRVGWFPANYVEEDYSEYC
notes: domain: SH3 (C-ter Vav); also called pGEX-4T-SH3 (C-ter Vav); not shown: glutathione S-transferase of vector pGEX-4T
B1: no binding.
